Data on one molecule can be found in patent US20230374078A1 (Janssen / Centocor, published 2023).

The target of the experiment is C97ZA_SOSIP_L556P_T651F_M535N (HIV-1 clade C strain C97ZA). Put plainly: AlphaLISA on crude cell culture supernatant. Background: In Alpha technology, singlet oxygen from a donor bead excites a nearby acceptor bead.

B1: mAb PGT145 (antibody, V domains shown)
VH: QVQLVQSGAEVKKPGSSVKVSCKASGNSFSNHDVHWVRQATGQGLEWMGWMSHEGDKTGLAQKFQGRVTITRDSGASTVYMELRGLTADDTAIYYCLTGSKHRLRDYFLYNEYGPNYEEWGDYLATLDVWGHGTAVTVSS
VL: EVVITQSPLFLPVTPGEAASLSCKCSHSLQHSTGANYLAWYLQRPGQTPRLLIHLATHRASGVPDRFSGSGSGTDFTLKISRVESDDVGTYYCMQGLHSPWTFGQGTKVEIKR
As for B1, the “trimer yield (PGT145 AlphaLISA signal), fold over the C97ZA_SOSIP backbone” value was 5 fold.
